The target in the test is HBV core protein dimer (Cp149 dimer, 34 kDa) (hepatitis B virus). Kind of test: multi-cycle resistive-pulse sensing.

What is called stoichiometry N is the number of molecules, sites or subunits per partner or assembly. “HBV core protein dimer (Cp149 dimer, 34 kDa) (domain or fragment)” registered a stoichiometry N of 120 dimers.

These data come from publication PMC8784147.
